{"source": "patent US20040106105A1", "about": "(published 2004)", "binders": {"B1": {"name": "Fab S8 (Fab, V domains shown)", "VH": "LESGGGLVKPGGSLRLSCAASGFTFSSYAMHWVRQAPGKGLEWVAFIWFDGSNERYADSVKGRFTITRDNPKNTLYLQMNSLRVEDTAVYYCVRRGGSILTGFHLDYWGQGTLVTVSS", "VL": "ELTQSPSSLSASVGDRVTITCRASQGIRDDLGWYQQKPGKAPKRLIYAASNLQSGVPSRFSGGGSGTEFTLTISSLQPEDFATYYCLQHNSYPLTFGGGTKVEIKR"}}, "note": "“And” between values parts separate entries of the source, which are not always exact repeats. Equal values may be shown once.", "data": [{"molecular_target": "B1", "assay": "phage display panning on coated Fab S8, round 1, 12-mer library, 1 clone; clone not tested singly", "values": [{"binder": "HTRVLPSTAMTL", "note": "[peptide of phage clone 1r9]", "binding result": "binds"}, {"binder": "WTTNFADPPSST", "note": "[peptide of phage clone 1r6]", "binding result": "binds"}, {"binder": "LFQKQIESPWRS", "note": "[peptide of phage clone 1r10]", "binding result": "binds"}, {"binder": "SGLDGMHVNSPW", "note": "[peptide of phage clone 1r1]", "binding result": "binds"}, {"binder": "CLSSNSSPPPRP", "note": "[peptide of phage clone 1r8]", "binding result": "binds"}, {"binder": "SSCAAFWSKARP", "note": "[peptide of phage clone 1r7]", "binding result": "binds"}, {"binder": "HDEFVWISIWEP", "note": "[peptide of phage clone 1r5]", "binding result": "binds"}, {"binder": "FPASMPGLLLRV", "note": "[peptide of phage clone 1r2]", "binding result": "binds"}, {"binder": "QVMRMMPNGVYC", "note": "[peptide of phage clone 1r3]", "binding result": "binds"}, {"binder": "QDRALITPLDQT", "note": "[peptide of phage clone 1r4]", "binding result": "binds"}]}, {"molecular_target": "B1", "assay": "phage display panning on coated Fab S8, round 4, 12-mer library, 1 clone; clone not tested singly", "values": [{"binder": "TMQPYKSWWSSK", "note": "[peptide of phage clone 4r10]", "binding result": "binds"}, {"binder": "WFKPPQTPLTLM", "note": "[peptide of phage clone 4r5]", "binding result": "binds"}, {"binder": "ADVMLHSKHVQM", "note": "[peptide of phage clone 4r15]", "binding result": "binds"}, {"binder": "SASTPSSPWSRP", "note": "[peptide of phage clone 4r17]", "binding result": "binds"}, {"binder": "TAMNLGPALFRT", "note": "[peptide of phage clone 4r3]", "binding result": "binds"}]}, {"molecular_target": "B1", "assay": "phage display panning on coated Fab S8, round 2, 12-mer library, 1 clone; clone not tested singly", "values": [{"binder": "FYTPTMHSYGIQ", "note": "[peptide of phage clone 2r6]", "binding result": "binds"}, {"binder": "TTGDHRAFWLGG", "note": "[peptide of phage clone 2r9]", "binding result": "binds"}, {"binder": "HTKCSDASCPLI", "note": "[peptide of phage clone 2r1]", "binding result": "binds"}, {"binder": "NYFQQPPERHSS", "note": "[peptide of phage clone 2r10]", "binding result": "binds"}, {"binder": "NFQTPDRTQSNL", "note": "[peptide of phage clone 2r5]", "binding result": "binds"}, {"binder": "MPNPRQNPPPPL", "note": "[peptide of phage clone 2r4]", "binding result": "binds"}, {"binder": "HGHPLKTNTHRS", "note": "[peptide of phage clone 2r3]", "binding result": "binds"}, {"binder": "SVSPNMRMLHWW", "note": "[peptide of phage clone 2r7]", "binding result": "binds"}]}, {"molecular_target": "T1, recombinant gp120 III-B (HIV-1 III-B, UniProt P04578 33-511)", "T1 construct": "domain: gp120; also called gp120 III-B (LAI); HIV-1 gp120", "assay": "ELISA on gp120 III-B", "protocol": "Soluble Fabs from each resulting HC/LC pair were tested for binding to gp120 Ill-B and BSA in ELISA a s above. […] Soluble Fabs from each mutant were tested for binding to gp120 III-B and BSA in ELISA as above.", "values": [{"binder": "Fab S8 HCDR3 mutant Arg95Asp (Fab, V domains shown) VH: LESGGGLVKPGGSLRLSCAASGFTFSSYAMHWVRQAPGKGLEWVAFIWFDGSNERYADSVKGRFTITRDNPKNTLYLQMNSLRVEDTAVYYCVRDGGSILTGFHLDYWGQGTLVTVSS VL: ELTQSPSSLSASVGDRVTITCRASQGIRDDLGWYQQKPGKAPKRLIYAASNLQSGVPSRFSGGGSGTEFTLTISSLQPEDFATYYCLQHNSYPLTFGGGTKVEIKR", "binding result": "no binding"}, {"binder": "Fab S8 HCDR3 mutant Arg95Pro (Fab, V domains shown) VH: LESGGGLVKPGGSLRLSCAASGFTFSSYAMHWVRQAPGKGLEWVAFIWFDGSNERYADSVKGRFTITRDNPKNTLYLQMNSLRVEDTAVYYCVRPGGSILTGFHLDYWGQGTLVTVSS VL: ELTQSPSSLSASVGDRVTITCRASQGIRDDLGWYQQKPGKAPKRLIYAASNLQSGVPSRFSGGGSGTEFTLTISSLQPEDFATYYCLQHNSYPLTFGGGTKVEIKR", "binding result": "no binding"}, {"binder": "Fab S20 HCDR3 mutant Arg95Pro (Fab, V domains shown, See note of m21) VH: LESGGGVVQPGRSLRLSCSASGFSFRDYAMHWVRQAPGKGLEWVAFIWFDGSNERYADSVKGRFTITRDNPKNTLYLQMNSLRVEDTAVYYCVRPGGSILTGFHLDYWGQGTLVTVSS VL: ELTQSPSSLSASVGDRVTITCRASQGIRDDLGWYQQKPGKAPKRLIYAASNLQSGVPSRFSGGGSGTEFTLTISSLQPEDFATYYCLQHNSYPLTFGGGTKVEIKR", "binding result": "no binding"}, {"binder": "Fab S20 HCDR3 mutant Arg95Gly (Fab, V domains shown, See note of m21) VH: LESGGGVVQPGRSLRLSCSASGFSFRDYAMHWVRQAPGKGLEWVAFIWFDGSNERYADSVKGRFTITRDNPKNTLYLQMNSLRVEDTAVYYCVRGGGSILTGFHLDYWGQGTLVTVSS VL: ELTQSPSSLSASVGDRVTITCRASQGIRDDLGWYQQKPGKAPKRLIYAASNLQSGVPSRFSGGGSGTEFTLTISSLQPEDFATYYCLQHNSYPLTFGGGTKVEIKR", "binding result": "no binding"}, {"binder": "Fab S8 HCDR3 mutant Arg95Gly (Fab, V domains shown) VH: LESGGGLVKPGGSLRLSCAASGFTFSSYAMHWVRQAPGKGLEWVAFIWFDGSNERYADSVKGRFTITRDNPKNTLYLQMNSLRVEDTAVYYCVRGGGSILTGFHLDYWGQGTLVTVSS VL: ELTQSPSSLSASVGDRVTITCRASQGIRDDLGWYQQKPGKAPKRLIYAASNLQSGVPSRFSGGGSGTEFTLTISSLQPEDFATYYCLQHNSYPLTFGGGTKVEIKR", "binding result": "no binding"}, {"binder": "Fab S20 HCDR3 mutant Arg95Asp (Fab, V domains shown, The text names only S2095K for S20) VH: LESGGGVVQPGRSLRLSCSASGFSFRDYAMHWVRQAPGKGLEWVAFIWFDGSNERYADSVKGRFTITRDNPKNTLYLQMNSLRVEDTAVYYCVRDGGSILTGFHLDYWGQGTLVTVSS VL: ELTQSPSSLSASVGDRVTITCRASQGIRDDLGWYQQKPGKAPKRLIYAASNLQSGVPSRFSGGGSGTEFTLTISSLQPEDFATYYCLQHNSYPLTFGGGTKVEIKR", "binding result": "no binding"}]}, {"molecular_target": "B1", "assay": "phage display panning on coated Fab S8, round 4, 7-mer library Ph.D.-C7, 2 clones; clone not tested singly", "values": [{"binder": "SAMEAPP (also called 4c7)", "note": "[peptide of phage clone c72R4]", "binding result": "binds"}]}, {"molecular_target": "B1", "assay": "phage display panning on coated Fab S8, round 3, 12-mer library, 1 clone; clone not tested singly", "values": [{"binder": "MQSQLYRDSPRG", "note": "[peptide of phage clone 3r9]", "binding result": "binds"}, {"binder": "LPNATKLAPISP", "note": "[peptide of phage clone 3r10]", "binding result": "binds"}, {"binder": "GTTQNAMSLARL", "note": "[peptide of phage clone 3r5]", "binding result": "binds"}, {"binder": "KAPIPSSIPGFR", "note": "[peptide of phage clone 3r4]", "binding result": "binds"}, {"binder": "HASTPSSPWSRP", "note": "[peptide of phage clone 3r7]", "binding result": "binds"}, {"binder": "SAKPSYQPYAQP", "note": "[peptide of phage clone 3r1]", "binding result": "binds"}, {"binder": "HIETLLPAPELS", "note": "[peptide of phage clone 3r3]", "binding result": "binds"}, {"binder": "QPTTPFFDWDTH", "note": "[peptide of phage clone 3r6]", "binding result": "binds"}]}, {"molecular_target": "gp120 of HIV-1 SF-2 strain (HIV-1 SF-2, UniProt P03378 32-509)", "assay": "cell-based or functional assay", "values": [{"binder": "B1", "% neutralisation, infectivity reduction assay (IRA) in MT-2 cells": "50 % neutralisation at 1 µg/ml and > 90 % neutralisation at 10 µg/ml"}]}, {"molecular_target": "gp120 of HIV-1 RF strain (HIV-1 RF, UniProt P04579 32-519)", "assay": "cell-based or functional assay", "values": [{"binder": "B1", "% neutralisation, infectivity reduction assay (IRA) in MT-2 cells": "50 % neutralisation at 1 µg/ml and > 90 % neutralisation at 10 µg/ml"}]}, {"molecular_target": "gp120 of HIV-1 MN strain (HIV-1 MN, UniProt P05877 32-513)", "assay": "cell-based or functional assay", "values": [{"binder": "Fab S20 (Fab, V domains shown) VH: LESGGGVVQPGRSLRLSCSASGFSFRDYAMHWVRQAPGKGLEWVAFIWFDGSNERYADSVKGRFTITRDNPKNTLYLQMNSLRVEDTAVYYCVRRGGSILTGFHLDYWGQGTLVTVSS VL: ELTQSPSSLSASVGDRVTITCRASQGIRDDLGWYQQKPGKAPKRLIYAASNLQSGVPSRFSGGGSGTEFTLTISSLQPEDFATYYCLQHNSYPLTFGGGTKVEIKR", "% neutralisation, neutralisation plaque assay (NPA) in MT-4 cells": "90 % neutralisation at 20 µg/ml"}, {"binder": "B1", "% neutralisation, infectivity reduction assay (IRA) in MT-2 cells": "50 % neutralisation at 1 µg/ml and > 90 % neutralisation at 10 µg/ml", "% neutralisation, neutralisation plaque assay (NPA) in MT-4 cells": "90 % neutralisation at 20 µg/ml"}]}]}
